These are literature values, as cited in publication PMC5896957.

This data set deals with exon junction complex (Homo sapiens) (UniProt P38919).
Chain of UniProt P38919 (P38919 2-411, chain 1 of 3): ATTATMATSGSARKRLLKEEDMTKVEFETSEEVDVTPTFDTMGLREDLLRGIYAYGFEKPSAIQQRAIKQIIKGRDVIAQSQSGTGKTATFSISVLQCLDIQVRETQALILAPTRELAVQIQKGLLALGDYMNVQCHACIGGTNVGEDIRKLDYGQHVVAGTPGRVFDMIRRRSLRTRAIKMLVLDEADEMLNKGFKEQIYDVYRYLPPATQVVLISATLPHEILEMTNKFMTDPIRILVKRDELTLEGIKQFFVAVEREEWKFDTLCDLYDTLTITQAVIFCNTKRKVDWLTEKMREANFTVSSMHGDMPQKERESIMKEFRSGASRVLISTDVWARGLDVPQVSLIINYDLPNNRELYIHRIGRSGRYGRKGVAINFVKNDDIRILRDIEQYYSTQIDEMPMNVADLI
Chain of UniProt P38919 (B1ARP8 whole entry, chain 2 of 3, further chain): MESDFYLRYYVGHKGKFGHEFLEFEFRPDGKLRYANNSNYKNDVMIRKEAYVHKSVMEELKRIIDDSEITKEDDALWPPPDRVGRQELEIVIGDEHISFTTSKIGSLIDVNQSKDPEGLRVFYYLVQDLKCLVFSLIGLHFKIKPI
Chain of UniProt P38919 (O15234 whole entry, chain 3 of 3, further chain): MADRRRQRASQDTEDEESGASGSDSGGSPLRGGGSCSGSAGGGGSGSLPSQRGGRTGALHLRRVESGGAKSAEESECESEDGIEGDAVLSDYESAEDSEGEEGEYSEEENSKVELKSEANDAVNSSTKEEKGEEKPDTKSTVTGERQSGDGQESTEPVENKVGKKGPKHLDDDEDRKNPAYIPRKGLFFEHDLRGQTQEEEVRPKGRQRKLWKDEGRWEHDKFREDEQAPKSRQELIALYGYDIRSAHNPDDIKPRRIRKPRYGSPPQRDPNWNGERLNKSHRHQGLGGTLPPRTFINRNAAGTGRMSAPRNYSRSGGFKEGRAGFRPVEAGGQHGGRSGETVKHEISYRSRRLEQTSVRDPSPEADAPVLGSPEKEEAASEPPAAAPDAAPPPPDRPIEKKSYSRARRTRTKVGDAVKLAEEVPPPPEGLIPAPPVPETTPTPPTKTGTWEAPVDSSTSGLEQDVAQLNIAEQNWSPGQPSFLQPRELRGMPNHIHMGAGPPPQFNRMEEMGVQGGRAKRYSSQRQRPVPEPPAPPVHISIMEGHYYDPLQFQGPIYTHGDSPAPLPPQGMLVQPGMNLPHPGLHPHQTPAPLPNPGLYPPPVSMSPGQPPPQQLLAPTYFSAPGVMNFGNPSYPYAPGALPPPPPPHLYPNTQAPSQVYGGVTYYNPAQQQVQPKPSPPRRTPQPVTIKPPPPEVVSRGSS

The Kd is a measure of binding affinity in units of concentration. Consider UPF3B peptide (from UniProt Q9BZI7), for which the Kd is 10 µM.
